Source: paper PMC7269131

Biological target: Factor XIIIA (the A-subunit of coagulation Factor XIII), zymogen (UniProt P00488)
Assay: AUC

percent dissociated to monomers after 6 h in 25 mM CaCl2: 80%
Substance: Factor XIIIA (the A-subunit of coagulation Factor XIII), zymogen (from UniProt P00488 1-732) (enzyme)
